Test [1] concerns the target T1, HERV-K gag protein peptide on HLA-A*02:01 (human).
T1 peptide: FLQFKTWWI
Briefly: killing.

In test [2] the target is T2, EBV LMP2 peptide on HLA-A*02:01 (human).
T2 peptide: CLGGLLTMV
As to the kind of experiment: activation reporter or marker.

The target of test [3] is T3, mutant splice factor-induced (SF3B1mut) splice variant of MAPK8IP2 peptide on HLA-A*02:01 (human).
T3 peptide: RLPGVLPRA
As to the kind of experiment: killing.

The target in test [4] is T4, EBV BZLF1 peptide on HLA-B*35:01 (human).
T4 peptide: EPLPQGQLTAY
Briefly: activation reporter or marker.

The target in test [5] is T5, EBV BRLF1 peptide on HLA-A*02:01 (human).
T5 peptide: YVLDHLIVV
As to the kind of experiment: activation reporter or marker.

Test [6] deals with T6, EBV LMP2 (LMP2A) peptide on HLA-A*02:01 (human).
T6 peptide: MGSLEMVPM
Briefly: activation reporter or marker.

In test [7] the target is T3, mutant splice factor-induced (SF3B1mut) …. Briefly: multimer staining.

The source of these data is patent US20250262242A1 (published 2025).

B1: TCR_A0100 (TCR, V domains shown)
Valpha: KQEVTQIPAALSVPEGENLVLNCSFTDSAIYNLQWFRQDPGKGLTSLLLIQSSQREQTSGRLNASLDKSSGRSTLYIAASQPGDSATYLCAVGGNNNDMRFGAGTRLTVKP
Vbeta: AAGVIQSPRHLIKEKRETATLKCYPIPRHDTVYWYQQGPGQDPQFLISFYEKMQSDKGSIPDRFSAQQFSDYHSELNMSSLELGDSALYFCASSLINTEAFFGQGTRLTVV
With B1, the binding result in test [1] is given as “recognises”.

B2: TCR_A0064 (TCR, V domains shown)
Valpha: GQQVMQIPQYQHVQEGEDFTTYCNSSTTLSNIQWYKQRPGGHPVFLIQLVKSGEVKKQKRLTFQFGEAKKNSSLHITATQTTDVGTYFCAGAGAGSYQLTFGKGTKLSVIP
Vbeta: KAGVTQTPRYLIKTRGQQVTLSCSPISGHRSVSWYQQTPGQGLQFLFEYFSETQRNKGNFPGRFSGRQFSNSRSEMNVSTLELGDSALYLCASSLEGQASSYEQYFGPGTRLTVT
As to B2, the binding result in test [2] is reported as “recognises”.

B3: TCR_A0066 (TCR, V domains shown)
Valpha: GQQVMQIPQYQHVQEGEDFTTYCNSSTTLSNIQWYKQRPGGHPVFLIQLVKSGEVKKQKRLTFQFGEAKKNSSLHITATQTTDVGTYFCAGAGAGSYQLTFGKGTKLSVIP
Vbeta: KAGVTQTPRYLIKTRGQQVTLSCSPISGHRSVSWYQQTPGQGLQFLFEYFSETQRNKGNFPGRFSGRQFSNSRSEMNVSTLELGDSALYLCASSAEGQASSYEQYFGPGTRLTVT
Consider B3, for which the binding result in test [2] is listed as “recognises”.

B4: TCR_A0061 (TCR, V domains shown)
Valpha: KQEVTQIPAALSVPEGENLVLNCSFTDSAIYNLQWFRQDPGKGLTSLLLIQSSQREQTSGRLNASLDKSSGRSTLYIAASQPGDSATYLCAVLMDSNYQLIWGAGTKLIIKP
Vbeta: DAGITQSPRYKITETGRQVTLMCHQTWSHSYMFWYRQDLGHGLRLIYYSAAADITDKGEVPDGYVVSRSKTENFPLTLESATRSQTSVYFCASSSDGMNTEAFFGQGTRLTVV
Regarding B4, in test [2], the binding result is on record as “recognises”.

B5: TCR_A0130 (TCR, V domains shown)
Valpha: AQTVTQSQPEMSVQEAETVTLSCTYDTSESNYYLFWYKQPPSRQMILVIRQEAYKQQNATENRFSVNFQKAAKSFSLKISDSQLGDTAMYFCAFMIPDSNYQLIWGAGTKLIIKP
Vbeta: ETGVTQTPRHLVMGMTNKKSLKCEQHLGHNAMYWYKQSAKKPLELMFVYNFKEQTENNSVPSRFSPECPNSSHLFLHLHTLQPEDSALYLCASSQVGTSGRGGELFFGEGSRLTVL
In the case of B5, the binding result in test [3] was “recognises”.

B6: TCR_A0099 (TCR, V domains shown)
Valpha: ILNVEQSPQSLHVQEGDSTNFTCSFPSSNFYALHWYRWETAKSPEALFVMTLNGDEKKKGRISATLNTKEGYSYLYIKGSQPEDSATYLCAVNAGGTSYGKLTFGQGTILTVHP
Vbeta: EAGVAQSPRYKIIEKRQSVAFWCNPISGHATLYWYQQILGQGPKLLIQFQNNGVVDDSQLPKDRFSAERLKGVDSTLKIQPAKLEDSAVYLCASSSDWTANNEQFFGPGTRLTVL
Turning to B6, the binding result in test [4] is “recognises”.

B7: TCR_A0001 (TCR, V domains shown)
Valpha: AQSVSQHNHHVILSEAASLELGCNYSYGGTVNLFWYVQYPGQHLQLLLKYFSGDPLVKGIKGFEAEFIKSKFSFNLRKPSVQWSDTAEYFCAVKDTDKLIFGTGTRLQVFP
Vbeta: not shown
For B7, the binding result in test [5] is recorded as “recognises”.

B8: TCR_A0004 (TCR, V domains shown)
Valpha: AQSVSQHNHHVILSEAASLELGCNYSYGGTVNLFWYVQYPGQHLQLLLKYFSGDPLVKGIKGFEAEFIKSKFSFNLRKPSVQWSDTAEYFCAVKDTDKLIFGTGTRLQVFP
Vbeta: not shown
On to B8, for which, in test [5], the binding result was “recognises”.

B9: TCR_A0002 (TCR, V domains shown)
Valpha: AQSVSQHNHHVILSEAASLELGCNYSYGGTVNLFWYVQYPGQHLQLLLKYFSGDPLVKGIKGFEAEFIKSKFSFNLRKPSVQWSDTAEYFCAVKDTDKLIFGTGTRLQVFP
Vbeta: DTAVSQTPKYLVTQMGNDKSIKCEQNLGHDTMYWYKQDSKKFLKIMFSYNNKELIINETVPNRFSPKSPDKAHLNLHINSLELGDSAVYFCASSPDFNEQFFGPGTRLTVL
With B9, in test [5], the binding result is “recognises”.

B10: TCR_A0005 (TCR, V domains shown)
Valpha: AQKITQTQPGMFVQEKEAVTLDCTYDTSDQSYGLFWYKQPSSGEMIFLIYQGSYDEQNATEGRYSLNFQKARKSANLVISASQLGDSAMYFCAMREGGNFNKFYFGSGTKLNVKP
Vbeta: SAVISQKPSRDICQRGTSLTIQCQVDSQVTMMFWYRQQPGQSLTLIATANQGSEATYESGFVIDKFPISRPNLTFSTLTVSNMSPEDSSIYLCSVGGTSGTLPANEQFFGPGTRLTVL
As to B10, in test [5], the binding result was “recognises”.

B11: TCR_A0003 (TCR, V domains shown)
Valpha: AQSVSQHNHHVILSEAASLELGCNYSYGGTVNLFWYVQYPGQHLQLLLKYFSGDPLVKGIKGFEAEFIKSKFSFNLRKPSVQWSDTAEYFCAGGAAGNKLTFGGGTRVLVKP
Vbeta: EAGVAQSPRYKIIEKRQSVAFWCNPISGHATLYWYQQILGQGPKLLIQFQNNGVVDDSQLPKDRFSAERLKGVDSTLKIQPAKLEDSAVYLCASSSPLGGFAGANVLTFGAGSRLTVL
On to B11, for which the binding result in test [5] is “recognises”.

B12: TCR_A0015 (TCR, V domains shown)
Valpha: AQSVTQLDSQVPVFEEAPVELRCNYSSSVSVYLFWYVQYPNQGLQLLLKYLSGSTLVKGINGFEAEFNKSQTSFHLRKPSVHISDTAEYFCAVSALSYNQGGKLIFGQGTELSVKP
Vbeta: DAGVIQSPRHEVTEMGQEVTLRCKPISGHNSLFWYRQTMMRGLELLIYFNNNVPIDDSGMPEDRFSAKMPNASFSTLKIQPSEPRDSAVYFCASSWTGNEQYFGPGTRLTVT
In the case of B12, in test [6], the binding result is “recognises”.

B13: TCR_A0131 (TCR, V domains shown)
Valpha: AQTVTQSQPEMSVQEAETVTLSCTYDTSENNYYLFWYKQPPSRQMILVIRQEAYKQQNATENRFSVNFQKAAKSFSLKISDSQLGDTAMYFCAFMLIDSGTYKYIFGTGTRLKVLA
Vbeta: EAQVTQNPRYLITVTGKKLTVTCSQNMNHEYMSWYRQDPGLGLRQIYYSMNVEVTDKGDVPEGYKVSRKEKRNFPLILESPSPNQTSLYFCASSLGQGTETQYFGPGTRLLVL
Consider B13, for which the binding result in test [3] was “recognises”.

B14: TCR_A0358 (TCR, V domains shown)
Valpha: AQTVTQSQPEMSVQEAETVTLSCTYDTSENNYYLFWYKQPPSRQMILVIRQEAYKQQNATENRFSVNFQKAAKSFSLKISDSQLGDTAMYFCAFMGPDSGTYKYIFGTGTRLKVLA
Vbeta: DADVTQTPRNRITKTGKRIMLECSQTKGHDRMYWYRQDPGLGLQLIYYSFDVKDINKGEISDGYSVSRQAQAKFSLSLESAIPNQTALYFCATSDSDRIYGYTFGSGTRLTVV
Take B14: the binding result in test [7] is recorded as “recognises”.
